{"source": "patent US20210188948A1", "test_in_all_cases": "cell-based or functional assay", "key": {"[1]": {"target": "West Nile virus (WNV) reporter virus particles (RVPs) (West Nile virus)"}, "[2]": {"target": "DENV4 reporter virus particles (RVPs) (Dengue virus serotype 4)"}, "[3]": {"target": "DENV1 reporter virus particles (RVPs) (Dengue virus serotype 1)"}, "[4]": {"target": "DENV3 reporter virus particles (RVPs) (Dengue virus serotype 3)"}, "[5]": {"target": "Zika virus (ZIKV) reporter virus particles (RVPs) (Zika virus)"}}}
{"substance": "WNV-specific mAb CR4354 (antibody)", "values": [{"measurement": "IC50 (neutralization)", "setting": "[1]", "value": 0.007, "unit": "µg/mL"}]}
{"substance": "monoclonal antibody C10", "values": [{"measurement": "IC50 (neutralization)", "setting": "[2]", "value": 0.038, "unit": "µg/mL"}, {"measurement": "percent neutralization", "setting": "[2]", "value": 98, "unit": "%"}, {"measurement": "percent neutralization", "setting": "[1]", "value": -195, "unit": "%"}, {"measurement": "IC50 (neutralization)", "setting": "[3]", "value": 0.352, "unit": "µg/mL"}, {"measurement": "percent neutralization", "setting": "[3]", "value": 52, "unit": "%"}, {"measurement": "IC50 (neutralization)", "setting": "[4]", "value": 0.753, "unit": "µg/mL"}, {"measurement": "percent neutralization", "setting": "[4]", "value": -95, "unit": "%"}, {"measurement": "IC50 (neutralization)", "setting": "[5]", "value": 0.038, "unit": "µg/mL"}, {"measurement": "percent neutralization", "setting": "[5]", "value": 99, "unit": "%"}]}
{"substance": "monoclonal antibody E16", "values": [{"measurement": "percent neutralization", "setting": "[2]", "value": -177, "unit": "%"}, {"measurement": "percent neutralization", "setting": "[1]", "value": 99, "unit": "%"}, {"measurement": "percent neutralization", "setting": "[3]", "value": -303, "unit": "%"}, {"measurement": "percent neutralization", "setting": "[4]", "value": -415, "unit": "%"}, {"measurement": "percent neutralization", "setting": "[5]", "value": -38, "unit": "%"}]}
